Measured values: patent US20210139548A1 (published 2021)
*1 amine or outer side, *2 acyl side, *3 side chain or, on linkers, in order; H or OH if unused. Side-chain parts run from the residue outwards. The star is where a group is joined. C18 diacid = O=C(O)CCCCCCCCCCCCCCCCC(=O)*; γGlu = O=C(O)[C@H](CCC(=O)[*:2])N[*:1]; Isovaleryl = CC(C)CC(=O)*; AEEA = NCCOCCOCC(=O)O

T1: human neuropeptide Y2 receptor (human, UniProt P49146 1-381)
T1 construct: whole, on cells; also called hNPY2 receptor; hNPY2-R
T1 sequence (looked up): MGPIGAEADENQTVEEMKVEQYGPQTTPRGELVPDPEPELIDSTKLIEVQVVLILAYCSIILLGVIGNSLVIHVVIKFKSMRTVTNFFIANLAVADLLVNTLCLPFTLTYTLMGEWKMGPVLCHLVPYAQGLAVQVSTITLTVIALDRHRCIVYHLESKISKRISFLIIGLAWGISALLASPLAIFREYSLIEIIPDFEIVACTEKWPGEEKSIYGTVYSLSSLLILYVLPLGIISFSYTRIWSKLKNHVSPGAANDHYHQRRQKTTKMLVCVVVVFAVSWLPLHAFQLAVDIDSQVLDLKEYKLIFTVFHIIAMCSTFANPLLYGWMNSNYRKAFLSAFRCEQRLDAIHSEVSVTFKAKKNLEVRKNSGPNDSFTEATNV

B1: Compound 61 (peptide)
peptide: Isovaleryl-APEK([AEEA-AEEA-γGlu-C18 diacid])PPEDASPEEIQRYYVSLRHYYNWLTRQRY-NH2
SMILES: CC[C@H](C)[C@H](NC(=O)[C@H](CCC(=O)O)NC(=O)[C@H](CCC(=O)O)NC(=O)[C@@H]1CCCN1C(=O)[C@H](CO)NC(=O)[C@H](C)NC(=O)[C@H](CC(=O)O)NC(=O)[C@H](CCC(=O)O)NC(=O)[C@@H]1CCCN1C(=O)[C@@H]1CCCN1C(=O)[C@H](CCCCNC(=O)COCCOCCNC(=O)COCCOCCNC(=O)CC[C@H](NC(=O)CCCCCCCCCCCCCCCCC(=O)O)C(=O)O)NC(=O)[C@H](CCC(=O)O)NC(=O)[C@@H]1CCCN1C(=O)[C@H](C)NC(=O)CC(C)C)C(=O)N[C@@H](CCC(N)=O)C(=O)N[C@@H](CCCNC(=N)N)C(=O)N[C@@H](Cc1ccc(O)cc1)C(=O)N[C@@H](Cc1ccc(O)cc1)C(=O)N[C@H](C(=O)N[C@@H](CO)C(=O)N[C@@H](CC(C)C)C(=O)N[C@@H](CCCNC(=N)N)C(=O)N[C@@H](Cc1c[nH]cn1)C(=O)N[C@@H](Cc1ccc(O)cc1)C(=O)N[C@@H](Cc1ccc(O)cc1)C(=O)N[C@@H](CC(N)=O)C(=O)N[C@@H](Cc1c[nH]c2ccccc12)C(=O)N[C@@H](CC(C)C)C(=O)N[C@H](C(=O)N[C@@H](CCCNC(=N)N)C(=O)N[C@@H](CCC(N)=O)C(=O)N[C@@H](CCCNC(=N)N)C(=O)N[C@@H](Cc1ccc(O)cc1)C(N)=O)[C@@H](C)O)C(C)C
B2: Compound 67 (peptide)
peptide: Isovaleryl-APEK([AEEA-AEEA-γGlu-C18 diacid])PEEDSAPEELQRYYVSLRHYYNWLTRQRY-NH2
SMILES: CC(C)CC(=O)N[C@@H](C)C(=O)N1CCC[C@H]1C(=O)N[C@@H](CCC(=O)O)C(=O)N[C@@H](CCCCNC(=O)COCCOCCNC(=O)COCCOCCNC(=O)CC[C@H](NC(=O)CCCCCCCCCCCCCCCCC(=O)O)C(=O)O)C(=O)N1CCC[C@H]1C(=O)N[C@@H](CCC(=O)O)C(=O)N[C@@H](CCC(=O)O)C(=O)N[C@@H](CC(=O)O)C(=O)N[C@@H](CO)C(=O)N[C@@H](C)C(=O)N1CCC[C@H]1C(=O)N[C@@H](CCC(=O)O)C(=O)N[C@@H](CCC(=O)O)C(=O)N[C@@H](CC(C)C)C(=O)N[C@@H](CCC(N)=O)C(=O)N[C@@H](CCCNC(=N)N)C(=O)N[C@@H](Cc1ccc(O)cc1)C(=O)N[C@@H](Cc1ccc(O)cc1)C(=O)N[C@H](C(=O)N[C@@H](CO)C(=O)N[C@@H](CC(C)C)C(=O)N[C@@H](CCCNC(=N)N)C(=O)N[C@@H](Cc1c[nH]cn1)C(=O)N[C@@H](Cc1ccc(O)cc1)C(=O)N[C@@H](Cc1ccc(O)cc1)C(=O)N[C@@H](CC(N)=O)C(=O)N[C@@H](Cc1c[nH]c2ccccc12)C(=O)N[C@@H](CC(C)C)C(=O)N[C@H](C(=O)N[C@@H](CCCNC(=N)N)C(=O)N[C@@H](CCC(N)=O)C(=O)N[C@@H](CCCNC(=N)N)C(=O)N[C@@H](Cc1ccc(O)cc1)C(N)=O)[C@@H](C)O)C(C)C
B3: Compound 68 (peptide)
peptide: Isovaleryl-APEK([AEEA-AEEA-γGlu-C18 diacid])PEEEASPEELQAYYVSLRHYYNWLTRQRY-NH2
SMILES: CC(C)CC(=O)N[C@@H](C)C(=O)N1CCC[C@H]1C(=O)N[C@@H](CCC(=O)O)C(=O)N[C@@H](CCCCNC(=O)COCCOCCNC(=O)COCCOCCNC(=O)CC[C@H](NC(=O)CCCCCCCCCCCCCCCCC(=O)O)C(=O)O)C(=O)N1CCC[C@H]1C(=O)N[C@@H](CCC(=O)O)C(=O)N[C@@H](CCC(=O)O)C(=O)N[C@@H](CCC(=O)O)C(=O)N[C@@H](C)C(=O)N[C@@H](CO)C(=O)N1CCC[C@H]1C(=O)N[C@@H](CCC(=O)O)C(=O)N[C@@H](CCC(=O)O)C(=O)N[C@@H](CC(C)C)C(=O)N[C@@H](CCC(N)=O)C(=O)N[C@@H](C)C(=O)N[C@@H](Cc1ccc(O)cc1)C(=O)N[C@@H](Cc1ccc(O)cc1)C(=O)N[C@H](C(=O)N[C@@H](CO)C(=O)N[C@@H](CC(C)C)C(=O)N[C@@H](CCCNC(=N)N)C(=O)N[C@@H](Cc1c[nH]cn1)C(=O)N[C@@H](Cc1ccc(O)cc1)C(=O)N[C@@H](Cc1ccc(O)cc1)C(=O)N[C@@H](CC(N)=O)C(=O)N[C@@H](Cc1c[nH]c2ccccc12)C(=O)N[C@@H](CC(C)C)C(=O)N[C@H](C(=O)N[C@@H](CCCNC(=N)N)C(=O)N[C@@H](CCC(N)=O)C(=O)N[C@@H](CCCNC(=N)N)C(=O)N[C@@H](Cc1ccc(O)cc1)C(N)=O)[C@@H](C)O)C(C)C
B4: Compound 69 (peptide)
peptide: Isovaleryl-APEK([AEEA-AEEA-γGlu-C18 diacid])PEEDSSAEELQRYYVSLRHYYNWLTRQRY-NH2
SMILES: CC(C)CC(=O)N[C@@H](C)C(=O)N1CCC[C@H]1C(=O)N[C@@H](CCC(=O)O)C(=O)N[C@@H](CCCCNC(=O)COCCOCCNC(=O)COCCOCCNC(=O)CC[C@H](NC(=O)CCCCCCCCCCCCCCCCC(=O)O)C(=O)O)C(=O)N1CCC[C@H]1C(=O)N[C@@H](CCC(=O)O)C(=O)N[C@@H](CCC(=O)O)C(=O)N[C@@H](CC(=O)O)C(=O)N[C@@H](CO)C(=O)N[C@@H](CO)C(=O)N[C@@H](C)C(=O)N[C@@H](CCC(=O)O)C(=O)N[C@@H](CCC(=O)O)C(=O)N[C@@H](CC(C)C)C(=O)N[C@@H](CCC(N)=O)C(=O)N[C@@H](CCCNC(=N)N)C(=O)N[C@@H](Cc1ccc(O)cc1)C(=O)N[C@@H](Cc1ccc(O)cc1)C(=O)N[C@H](C(=O)N[C@@H](CO)C(=O)N[C@@H](CC(C)C)C(=O)N[C@@H](CCCNC(=N)N)C(=O)N[C@@H](Cc1c[nH]cn1)C(=O)N[C@@H](Cc1ccc(O)cc1)C(=O)N[C@@H](Cc1ccc(O)cc1)C(=O)N[C@@H](CC(N)=O)C(=O)N[C@@H](Cc1c[nH]c2ccccc12)C(=O)N[C@@H](CC(C)C)C(=O)N[C@H](C(=O)N[C@@H](CCCNC(=N)N)C(=O)N[C@@H](CCC(N)=O)C(=O)N[C@@H](CCCNC(=N)N)C(=O)N[C@@H](Cc1ccc(O)cc1)C(N)=O)[C@@H](C)O)C(C)C
B5: Compound 65 (peptide)
peptide: Isovaleryl-APEK([AEEA-AEEA-γGlu-C18 diacid])PEEDASPEELQRYYVEIRHYYNWLTRQRY-NH2
SMILES: CC[C@H](C)[C@H](NC(=O)[C@H](CCC(=O)O)NC(=O)[C@@H](NC(=O)[C@H](Cc1ccc(O)cc1)NC(=O)[C@H](Cc1ccc(O)cc1)NC(=O)[C@H](CCCNC(=N)N)NC(=O)[C@H](CCC(N)=O)NC(=O)[C@H](CC(C)C)NC(=O)[C@H](CCC(=O)O)NC(=O)[C@H](CCC(=O)O)NC(=O)[C@@H]1CCCN1C(=O)[C@H](CO)NC(=O)[C@H](C)NC(=O)[C@H](CC(=O)O)NC(=O)[C@H](CCC(=O)O)NC(=O)[C@H](CCC(=O)O)NC(=O)[C@@H]1CCCN1C(=O)[C@H](CCCCNC(=O)COCCOCCNC(=O)COCCOCCNC(=O)CC[C@H](NC(=O)CCCCCCCCCCCCCCCCC(=O)O)C(=O)O)NC(=O)[C@H](CCC(=O)O)NC(=O)[C@@H]1CCCN1C(=O)[C@H](C)NC(=O)CC(C)C)C(C)C)C(=O)N[C@@H](CCCNC(=N)N)C(=O)N[C@@H](Cc1c[nH]cn1)C(=O)N[C@@H](Cc1ccc(O)cc1)C(=O)N[C@@H](Cc1ccc(O)cc1)C(=O)N[C@@H](CC(N)=O)C(=O)N[C@@H](Cc1c[nH]c2ccccc12)C(=O)N[C@@H](CC(C)C)C(=O)N[C@H](C(=O)N[C@@H](CCCNC(=N)N)C(=O)N[C@@H](CCC(N)=O)C(=O)N[C@@H](CCCNC(=N)N)C(=O)N[C@@H](Cc1ccc(O)cc1)C(N)=O)[C@@H](C)O
B6: Compound 63 (peptide)
peptide: Isovaleryl-APEK([AEEA-AEEA-γGlu-C18 diacid])PEEDASPEELQRYYVSLRAYYNWLTRQRY-NH2
SMILES: CC(C)CC(=O)N[C@@H](C)C(=O)N1CCC[C@H]1C(=O)N[C@@H](CCC(=O)O)C(=O)N[C@@H](CCCCNC(=O)COCCOCCNC(=O)COCCOCCNC(=O)CC[C@H](NC(=O)CCCCCCCCCCCCCCCCC(=O)O)C(=O)O)C(=O)N1CCC[C@H]1C(=O)N[C@@H](CCC(=O)O)C(=O)N[C@@H](CCC(=O)O)C(=O)N[C@@H](CC(=O)O)C(=O)N[C@@H](C)C(=O)N[C@@H](CO)C(=O)N1CCC[C@H]1C(=O)N[C@@H](CCC(=O)O)C(=O)N[C@@H](CCC(=O)O)C(=O)N[C@@H](CC(C)C)C(=O)N[C@@H](CCC(N)=O)C(=O)N[C@@H](CCCNC(=N)N)C(=O)N[C@@H](Cc1ccc(O)cc1)C(=O)N[C@@H](Cc1ccc(O)cc1)C(=O)N[C@H](C(=O)N[C@@H](CO)C(=O)N[C@@H](CC(C)C)C(=O)N[C@@H](CCCNC(=N)N)C(=O)N[C@@H](C)C(=O)N[C@@H](Cc1ccc(O)cc1)C(=O)N[C@@H](Cc1ccc(O)cc1)C(=O)N[C@@H](CC(N)=O)C(=O)N[C@@H](Cc1c[nH]c2ccccc12)C(=O)N[C@@H](CC(C)C)C(=O)N[C@H](C(=O)N[C@@H](CCCNC(=N)N)C(=O)N[C@@H](CCC(N)=O)C(=O)N[C@@H](CCCNC(=N)N)C(=O)N[C@@H](Cc1ccc(O)cc1)C(N)=O)[C@@H](C)O)C(C)C

Target: T1, human neuropeptide Y2 receptor
Assay: radioligand competition (125I-PYY(1-36)), hNPY2R membranes
Summary of the method: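 Commercial human Y2 receptor membranes (0.5 μg protein/well) were incubated with peptide for 2 h at room temperature in 50 mM HEPES, 5 mM MgCl₂, 1 mM CaCl₂, pH 7.4, with 0.2% ovalbumin. Bound radioligand was separated on PEI-soaked GF/C filters and counted by scintillation, and IC₅₀ came from nonlinear sigmoidal regression.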

Binder | Ki
B1 | 0.4 nM
B2 | 4.37 nM
B3 | 8.47 nM
B4 | 5.74 nM
B5 | 1.02 nM
B6 | 3.13 nM
